# Source: patent US20230416330A1, “Optimized GIP Peptide Analogues” (Antag Therapeutics ApS, priority 2019, published 2023)
# Starred links: 1 amine or outer side, 2 acyl side, 3 side chain; linkers in the order of their positions; H or OH if unused. Non-standard residues stand in square brackets, D forms with d. Groups on a side chain read outwards from the residue. No end group written: not given here. *: point of attachment. C16 diacid = O=C(O)CCCCCCCCCCCCCCC(=O)*; γGlu = O=C(O)[C@H](CCC(=O)[*:2])N[*:1]; Aib = CC(C)(N)C(=O)O
# T1: human GIP receptor (human, UniProt P48546 22-466)
# T1 sequence (looked up): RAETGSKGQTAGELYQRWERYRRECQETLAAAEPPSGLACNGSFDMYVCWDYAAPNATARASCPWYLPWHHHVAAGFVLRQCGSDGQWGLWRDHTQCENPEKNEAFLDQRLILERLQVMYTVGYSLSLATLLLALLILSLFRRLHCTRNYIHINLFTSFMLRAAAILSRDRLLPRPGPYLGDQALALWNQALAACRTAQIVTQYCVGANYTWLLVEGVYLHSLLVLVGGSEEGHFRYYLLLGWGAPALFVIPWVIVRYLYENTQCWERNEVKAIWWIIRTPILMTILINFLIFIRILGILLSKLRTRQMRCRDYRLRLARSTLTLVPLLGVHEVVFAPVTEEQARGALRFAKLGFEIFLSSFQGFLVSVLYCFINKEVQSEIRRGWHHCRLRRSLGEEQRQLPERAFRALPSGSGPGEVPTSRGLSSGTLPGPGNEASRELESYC
# B1: AT720 (peptide)
# peptide: EGTFISEYSI[Aib]LEKIK([Aib-C16 diacid])QQEFVEWLLAQKPSSGAPPPS-OH
# modifications: N-terminus assumed
# SMILES: CC[C@H](C)[C@H](NC(=O)[C@H](CCCCN)NC(=O)[C@H](CCC(=O)O)NC(=O)[C@H](CC(C)C)NC(=O)C(C)(C)NC(=O)[C@@H](NC(=O)[C@H](CO)NC(=O)[C@H](Cc1ccc(O)cc1)NC(=O)[C@H](CCC(=O)O)NC(=O)[C@H](CO)NC(=O)[C@@H](NC(=O)[C@H](Cc1ccccc1)NC(=O)[C@@H](NC(=O)CNC(=O)[C@@H](N)CCC(=O)O)[C@@H](C)O)[C@@H](C)CC)[C@@H](C)CC)C(=O)N[C@@H](CCCCNC(=O)C(C)(C)NC(=O)CCCCCCCCCCCCCCC(=O)O)C(=O)N[C@@H](CCC(N)=O)C(=O)N[C@@H](CCC(N)=O)C(=O)N[C@@H](CCC(=O)O)C(=O)N[C@@H](Cc1ccccc1)C(=O)N[C@H](C(=O)N[C@@H](CCC(=O)O)C(=O)N[C@@H](Cc1c[nH]c2ccccc12)C(=O)N[C@@H](CC(C)C)C(=O)N[C@@H](CC(C)C)C(=O)N[C@@H](C)C(=O)N[C@@H](CCC(N)=O)C(=O)N[C@@H](CCCCN)C(=O)N1CCC[C@H]1C(=O)N[C@@H](CO)C(=O)N[C@@H](CO)C(=O)NCC(=O)N[C@@H](C)C(=O)N1CCC[C@H]1C(=O)N1CCC[C@H]1C(=O)N1CCC[C@H]1C(=O)N[C@@H](CO)C(=O)O)C(C)C
# B2: AT721 (peptide)
# peptide: EGTFISEYSI[Aib]LEKIK([γGlu-C16 diacid])QQEFVEWLLAQKPSSGAPPPS-OH
# modifications: N-terminus assumed
# SMILES: CC[C@H](C)[C@H](NC(=O)[C@H](CCCCN)NC(=O)[C@H](CCC(=O)O)NC(=O)[C@H](CC(C)C)NC(=O)C(C)(C)NC(=O)[C@@H](NC(=O)[C@H](CO)NC(=O)[C@H](Cc1ccc(O)cc1)NC(=O)[C@H](CCC(=O)O)NC(=O)[C@H](CO)NC(=O)[C@@H](NC(=O)[C@H](Cc1ccccc1)NC(=O)[C@@H](NC(=O)CNC(=O)[C@@H](N)CCC(=O)O)[C@@H](C)O)[C@@H](C)CC)[C@@H](C)CC)C(=O)N[C@@H](CCCCNC(=O)CC[C@H](NC(=O)CCCCCCCCCCCCCCC(=O)O)C(=O)O)C(=O)N[C@@H](CCC(N)=O)C(=O)N[C@@H](CCC(N)=O)C(=O)N[C@@H](CCC(=O)O)C(=O)N[C@@H](Cc1ccccc1)C(=O)N[C@H](C(=O)N[C@@H](CCC(=O)O)C(=O)N[C@@H](Cc1c[nH]c2ccccc12)C(=O)N[C@@H](CC(C)C)C(=O)N[C@@H](CC(C)C)C(=O)N[C@@H](C)C(=O)N[C@@H](CCC(N)=O)C(=O)N[C@@H](CCCCN)C(=O)N1CCC[C@H]1C(=O)N[C@@H](CO)C(=O)N[C@@H](CO)C(=O)NCC(=O)N[C@@H](C)C(=O)N1CCC[C@H]1C(=O)N1CCC[C@H]1C(=O)N1CCC[C@H]1C(=O)N[C@@H](CO)C(=O)O)C(C)C
# B3: AT739 (peptide)
# peptide: EGTFISDYSK(C16 diacid)AMDKIHQQDFVEWLLAQKPSSGAPPPS-OH
# modifications: N-terminus assumed
# SMILES: CC[C@H](C)[C@H](NC(=O)[C@H](CCCCN)NC(=O)[C@H](CC(=O)O)NC(=O)[C@H](CCSC)NC(=O)[C@H](C)NC(=O)[C@H](CCCCNC(=O)CCCCCCCCCCCCCCC(=O)O)NC(=O)[C@H](CO)NC(=O)[C@H](Cc1ccc(O)cc1)NC(=O)[C@H](CC(=O)O)NC(=O)[C@H](CO)NC(=O)[C@@H](NC(=O)[C@H](Cc1ccccc1)NC(=O)[C@@H](NC(=O)CNC(=O)[C@@H](N)CCC(=O)O)[C@@H](C)O)[C@@H](C)CC)C(=O)N[C@@H](Cc1c[nH]cn1)C(=O)N[C@@H](CCC(N)=O)C(=O)N[C@@H](CCC(N)=O)C(=O)N[C@@H](CC(=O)O)C(=O)N[C@@H](Cc1ccccc1)C(=O)N[C@H](C(=O)N[C@@H](CCC(=O)O)C(=O)N[C@@H](Cc1c[nH]c2ccccc12)C(=O)N[C@@H](CC(C)C)C(=O)N[C@@H](CC(C)C)C(=O)N[C@@H](C)C(=O)N[C@@H](CCC(N)=O)C(=O)N[C@@H](CCCCN)C(=O)N1CCC[C@H]1C(=O)N[C@@H](CO)C(=O)N[C@@H](CO)C(=O)NCC(=O)N[C@@H](C)C(=O)N1CCC[C@H]1C(=O)N1CCC[C@H]1C(=O)N1CCC[C@H]1C(=O)N[C@@H](CO)C(=O)O)C(C)C
# B4: AT719 (peptide)
# peptide: EGTFISDYSIAMDKIK(C16 diacid)QQDFVNWLLAQK-OH
# modifications: N-terminus assumed
# SMILES: CC[C@H](C)[C@H](NC(=O)[C@H](CO)NC(=O)[C@H](Cc1ccc(O)cc1)NC(=O)[C@H](CC(=O)O)NC(=O)[C@H](CO)NC(=O)[C@@H](NC(=O)[C@H](Cc1ccccc1)NC(=O)[C@@H](NC(=O)CNC(=O)[C@@H](N)CCC(=O)O)[C@@H](C)O)[C@@H](C)CC)C(=O)N[C@@H](C)C(=O)N[C@@H](CCSC)C(=O)N[C@@H](CC(=O)O)C(=O)N[C@@H](CCCCN)C(=O)N[C@H](C(=O)N[C@@H](CCCCNC(=O)CCCCCCCCCCCCCCC(=O)O)C(=O)N[C@@H](CCC(N)=O)C(=O)N[C@@H](CCC(N)=O)C(=O)N[C@@H](CC(=O)O)C(=O)N[C@@H](Cc1ccccc1)C(=O)N[C@H](C(=O)N[C@@H](CC(N)=O)C(=O)N[C@@H](Cc1c[nH]c2ccccc12)C(=O)N[C@@H](CC(C)C)C(=O)N[C@@H](CC(C)C)C(=O)N[C@@H](C)C(=O)N[C@@H](CCC(N)=O)C(=O)N[C@@H](CCCCN)C(=O)O)C(C)C)[C@@H](C)CC
# B5: AT722 (peptide)
# peptide: EGTFISEYSI[Aib]LEKIK([Ser-Gly-Gly-Gly-Gly-C16 diacid])QQEFVEWLLAQKPSSGAPPPS-OH
# modifications: N-terminus assumed
# SMILES: CC[C@H](C)[C@H](NC(=O)[C@H](CCCCN)NC(=O)[C@H](CCC(=O)O)NC(=O)[C@H](CC(C)C)NC(=O)C(C)(C)NC(=O)[C@@H](NC(=O)[C@H](CO)NC(=O)[C@H](Cc1ccc(O)cc1)NC(=O)[C@H](CCC(=O)O)NC(=O)[C@H](CO)NC(=O)[C@@H](NC(=O)[C@H](Cc1ccccc1)NC(=O)[C@@H](NC(=O)CNC(=O)[C@@H](N)CCC(=O)O)[C@@H](C)O)[C@@H](C)CC)[C@@H](C)CC)C(=O)N[C@@H](CCCCNC(=O)[C@H](CO)NC(=O)CNC(=O)CNC(=O)CNC(=O)CNC(=O)CCCCCCCCCCCCCCC(=O)O)C(=O)N[C@@H](CCC(N)=O)C(=O)N[C@@H](CCC(N)=O)C(=O)N[C@@H](CCC(=O)O)C(=O)N[C@@H](Cc1ccccc1)C(=O)N[C@H](C(=O)N[C@@H](CCC(=O)O)C(=O)N[C@@H](Cc1c[nH]c2ccccc12)C(=O)N[C@@H](CC(C)C)C(=O)N[C@@H](CC(C)C)C(=O)N[C@@H](C)C(=O)N[C@@H](CCC(N)=O)C(=O)N[C@@H](CCCCN)C(=O)N1CCC[C@H]1C(=O)N[C@@H](CO)C(=O)N[C@@H](CO)C(=O)NCC(=O)N[C@@H](C)C(=O)N1CCC[C@H]1C(=O)N1CCC[C@H]1C(=O)N1CCC[C@H]1C(=O)N[C@@H](CO)C(=O)O)C(C)C
# B6: AT740 (peptide)
# peptide: EGTFISDYSIK(C16 diacid)MDKIHQQDFVEWLLAQKPSSGAPPPS-OH
# modifications: N-terminus assumed
# SMILES: CC[C@H](C)[C@H](NC(=O)[C@H](CCCCN)NC(=O)[C@H](CC(=O)O)NC(=O)[C@H](CCSC)NC(=O)[C@H](CCCCNC(=O)CCCCCCCCCCCCCCC(=O)O)NC(=O)[C@@H](NC(=O)[C@H](CO)NC(=O)[C@H](Cc1ccc(O)cc1)NC(=O)[C@H](CC(=O)O)NC(=O)[C@H](CO)NC(=O)[C@@H](NC(=O)[C@H](Cc1ccccc1)NC(=O)[C@@H](NC(=O)CNC(=O)[C@@H](N)CCC(=O)O)[C@@H](C)O)[C@@H](C)CC)[C@@H](C)CC)C(=O)N[C@@H](Cc1c[nH]cn1)C(=O)N[C@@H](CCC(N)=O)C(=O)N[C@@H](CCC(N)=O)C(=O)N[C@@H](CC(=O)O)C(=O)N[C@@H](Cc1ccccc1)C(=O)N[C@H](C(=O)N[C@@H](CCC(=O)O)C(=O)N[C@@H](Cc1c[nH]c2ccccc12)C(=O)N[C@@H](CC(C)C)C(=O)N[C@@H](CC(C)C)C(=O)N[C@@H](C)C(=O)N[C@@H](CCC(N)=O)C(=O)N[C@@H](CCCCN)C(=O)N1CCC[C@H]1C(=O)N[C@@H](CO)C(=O)N[C@@H](CO)C(=O)NCC(=O)N[C@@H](C)C(=O)N1CCC[C@H]1C(=O)N1CCC[C@H]1C(=O)N1CCC[C@H]1C(=O)N[C@@H](CO)C(=O)O)C(C)C
# Molecular target: T1, human GIP receptor
# Experiment: cell-based or functional assay
Binder,"nM (Kb, Gaddum assay, cAMP)","pKb (Gaddum assay, cAMP)"
B1,0.29 nM,9.5
B2,0.31 nM,9.5
EGTFISEYSI[Aib]LEKIK([Lys-Ala-Ala-Ala-Glu-Lys-Ala-Ala-Ala-Glu-Lys-Ala-Ala-Ala-Glu-C16 diacid])QQEFVEWLLAQKPSSGAPPPS-OH (not fully specified) [AT724],0.31 nM,9.5
B3,11 nM,7.9
B4,7.6 nM,8.1
B5,0.28 nM,9.6
B6,14 nM,7.9
EGTFISEYSI[Aib]LEKIK([Ala-Glu-Leu-Ala-C16 diacid])QQEFVEWLLAQKPSSGAPPPS-OH [AT725],0.6 nM,9.2
